Legend:
[1] = system: PE-Bxb1 integrase fusion (PASTE v3; printed Bxbl); experiment: cell_activity; settings: PASTE v3 comparator, Hepa1c1c7; att sequences not given
[2] = system: PE-Bce integrase fusion (PASTE v4; printed Bcel); experiment: cell_activity; settings: PASTE v4 comparator, Hepa1c1c7; att sequences not given

Row | Substance | activity (% mCherry-positive cells) [1] | activity (% mCherry-positive cells) [2]
1 | Bxb1 att sites (PASTE v3) | 3.8 | 
2 | Bce att sites (PASTE v4) |  | 0.5

From patent US20240401013
